Biological target: SNAP-mGluR3 (rat), P31422
Test: single-molecule pulldown (SiMPull) with subunit counting by photobleaching steps; surface receptors labelled with BG-LD555 on HEK 293T cells, lysed in 1.2% IGEPAL, diluted in 0.1% IGEPAL, immobilised by biotinylated anti-HA antibody on a PEG-passivated coverslip, TIRF imaging; SNAP labelling efficiency ~80%; background two-step bleaching ~5-10%
Conditions: remark: other sources report otherwise

percent of spots bleaching in two steps: 48.9%
stoichiometry N: 2
B1: SNAP-mGluR3, P31422 23-879 (receptor)
chain: LGDHNFMRREIKIEGDLVLGGLFPINEKGTGTEECGRINEDRGIQRLEAMLFAIDEINKDNYLLPGVKLGVHILDTCSRDTYALEQSLEFVRASLTKVDEAEYMCPDGSYAIQENIPLLIAGVIGGSYSSVSIQVANLLRLFQIPQISYASTSAKLSDKSRYDYFARTVPPDFYQAKAMAEILRFFNWTYVSTVASEGDYGETGIEAFEQEARLRNICIATAEKVGRSNIRKSYDSVIRELLQKPNARVVVLFMRSDDSRELIAAANRVNASFTWVASDGWGAQESIVKGSEHVAYGAITLELASHPVRQFDRYFQSLNPYNNHRNPWFRDFWEQKFQCSLQNKRNHRQVCDKHLAIDSSNYEQESKIMFVVNAVYAMAHALHKMQRTLCPNTTKLCDAMKILDGKKLYKEYLLKINFTAPFNPNKGADSIVKFDTFGDGMGRYNVFNLQQTGGKYSYLKVGHWAETLSLDVDSIHWSRNSVPTSQCSDPCAPNEMKNMQPGDVCCWICIPCEPYEYLVDEFTCMDCGPGQWPTADLSGCYNLPEDYIKWEDAWAIGPVTIACLGFLCTCIVITVFIKHNNTPLVKASGRELCYILLFGVSLSYCMTFFFIAKPSPVICALRRLGLGTSFAICYSALLTKTNCIARIFDGVKNGAQRPKFISPSSQVFICLGLILVQIVMVSVWLILETPGTRRYTLPEKRETVILKCNVKDSSMLISLTYDVVLVILCTVYAFKTRKCPENFNEAKFIGFTMYTTCIIWLAFLPIFYVTSSDYRVQTTTMCISVSLSGFVVLGCLFAPKVHIVLFQPQKNVVTHRLHLNRFSVSGTATTYSQSSASTYVPTVCNGREVLDSTTSSL
modifications: here or on the partner: SNAP tag labelled with BG-LD555; SNAP tag labelled with BG-LD555

Source: article PMC6588349, “Conformational dynamics between transmembrane domains and allosteric modulation of a metabotropic glutamate receptor” (eLife, 2019)
